According to article PMC10022779, “Purification and biochemical analysis of native AMPA receptors from three different mammalian species” (PLOS ONE, 2023):

Experiments:
Conditions in all cases: one partner purified
[1] = target: T1, GluA2 in native GluA2-containing AMPARs from pig brain (Sus scrofa (pig), endogenous brain, UniProt A0A287AEG6); assay: SEC; fluorescence-size exclusion chromatography (FSEC), GFP fluorescence; 15F1-GFP Fab added to membranes solubilized in 2% digitonin (w/v), equal masses of membranes from each mammal
T1 construct: AMPA receptor subunit GluA2, pig, endogenous in brain; also called native pig AMPARs; source: endogenous, pig brain membranes, solubilized in 2% digitonin

[2] = target: T2, GluA2 in native GluA2-containing AMPARs from rat brain (Rattus norvegicus, Sprague Dawley, UniProt P19491); assay: as above
T2 construct: AMPA receptor subunit GluA2, rat, endogenous in brain; also called native rat AMPARs; source: endogenous, rat (Sprague Dawley) brain membranes, solubilized in 2% digitonin

[3] = target: T3, GluA2 in native GluA2-containing AMPARs from mouse brain (Mus musculus, C57BL/6, UniProt P23819); assay: pull-down; immunoaffinity purification: 15F1-GFP incubated with digitonin-solubilized membrane supernatant (on ice, 20 min), 15F1-GFP-bound AMPARs held on Streptactin resin by the twin-Strep II tag, eluted with 8 mM d-desthiobiotin, then SEC (Superose 6) in TBS, 1 uM (R,R)-2b, 1 uM MPQX, 0.075% digitonin; read out by FSEC and silver-stained SDS-PAGE
T3 construct: AMPA receptor subunit GluA2, mouse, endogenous in brain; also called native mouse AMPARs; source: endogenous, mouse (C57BL/6) brain membranes, solubilized in 2% digitonin

Measured: binding result

T3 sequence (P23819 25-883): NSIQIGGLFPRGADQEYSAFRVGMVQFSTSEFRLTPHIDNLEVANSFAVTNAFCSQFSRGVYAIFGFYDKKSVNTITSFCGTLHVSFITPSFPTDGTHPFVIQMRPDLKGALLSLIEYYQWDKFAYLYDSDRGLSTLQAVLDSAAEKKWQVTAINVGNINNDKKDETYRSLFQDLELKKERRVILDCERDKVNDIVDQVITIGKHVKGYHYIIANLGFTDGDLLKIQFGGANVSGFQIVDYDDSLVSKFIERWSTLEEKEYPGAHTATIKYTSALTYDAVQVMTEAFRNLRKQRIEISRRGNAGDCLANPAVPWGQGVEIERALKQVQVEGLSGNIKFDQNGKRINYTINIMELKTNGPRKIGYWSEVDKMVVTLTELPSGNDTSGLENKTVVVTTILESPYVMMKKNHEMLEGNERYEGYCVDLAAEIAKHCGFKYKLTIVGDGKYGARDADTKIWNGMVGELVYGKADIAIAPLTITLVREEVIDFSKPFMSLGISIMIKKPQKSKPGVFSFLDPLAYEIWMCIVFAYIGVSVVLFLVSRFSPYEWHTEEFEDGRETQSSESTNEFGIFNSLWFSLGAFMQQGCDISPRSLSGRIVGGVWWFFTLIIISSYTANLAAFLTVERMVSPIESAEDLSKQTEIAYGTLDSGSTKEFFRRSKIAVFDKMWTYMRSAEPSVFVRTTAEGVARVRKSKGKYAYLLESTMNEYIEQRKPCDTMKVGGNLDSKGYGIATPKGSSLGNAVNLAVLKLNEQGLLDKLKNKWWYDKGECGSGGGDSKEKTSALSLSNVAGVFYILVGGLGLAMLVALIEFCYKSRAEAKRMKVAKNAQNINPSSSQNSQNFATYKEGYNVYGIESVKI
T2 sequence (P19491 22-883): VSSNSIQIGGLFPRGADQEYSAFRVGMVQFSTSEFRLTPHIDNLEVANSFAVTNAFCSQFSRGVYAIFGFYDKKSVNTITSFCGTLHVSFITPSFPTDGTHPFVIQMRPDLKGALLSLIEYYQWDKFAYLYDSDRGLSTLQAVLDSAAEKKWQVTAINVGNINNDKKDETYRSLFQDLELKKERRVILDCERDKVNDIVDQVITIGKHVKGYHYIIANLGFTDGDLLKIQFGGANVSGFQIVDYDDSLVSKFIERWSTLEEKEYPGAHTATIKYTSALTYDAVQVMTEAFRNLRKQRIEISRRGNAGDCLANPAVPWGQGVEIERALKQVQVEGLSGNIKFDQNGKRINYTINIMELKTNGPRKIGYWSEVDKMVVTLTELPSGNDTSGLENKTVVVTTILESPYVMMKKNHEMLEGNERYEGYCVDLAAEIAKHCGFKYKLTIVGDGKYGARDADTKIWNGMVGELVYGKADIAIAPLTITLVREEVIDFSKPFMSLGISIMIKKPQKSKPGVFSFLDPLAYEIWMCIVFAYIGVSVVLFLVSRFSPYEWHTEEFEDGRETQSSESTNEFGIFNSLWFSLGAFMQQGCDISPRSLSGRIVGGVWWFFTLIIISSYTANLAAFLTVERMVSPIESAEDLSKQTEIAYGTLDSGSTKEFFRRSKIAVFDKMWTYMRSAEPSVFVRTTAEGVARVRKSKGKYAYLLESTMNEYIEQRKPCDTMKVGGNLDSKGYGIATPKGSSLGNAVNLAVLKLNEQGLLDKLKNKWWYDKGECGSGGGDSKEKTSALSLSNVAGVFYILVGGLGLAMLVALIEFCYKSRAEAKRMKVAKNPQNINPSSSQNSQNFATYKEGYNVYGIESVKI

B1: 15F1-GFP Fab (Fab, V domains shown)
VH: QAQLKESGPGLVAPSQSLSITCTVSGFSLTNYGVHWVRQPPGKGLEWLGVIWAGGSTNYNSALMSRVSISKDNSKSQVFLKMNSLQTDDTVMYYCAREDYDYDWHFDVWGAGTTVTVSS
VL: EIQMTQTTSSLSASLGDRVTISCRASQDISNYLSWYQQKPDGTVKLLIYYTSRLHSGVPSRFSGSGSGIDYSLTINNLEQEDFATYFCQQGNTLPLTFGAGTKLELK
notes: Fab domain of the heavy chain of the 15F1 monoclonal antibody; Fab domain of the light chain of the 15F1 monoclonal antibody; On the heavy chain eGFP is followed by the twin-Strep II tag; also called 15F1 Fab; anti-GluA2 antibody fragment; not shown: eGFP, C-terminal, kept; twin-Strep II, C-terminal, kept
binds: all assays above
